The Human Domainome abundance scans (Beltran et al. 2025)
± gives the uncertainty stated by the source.

Assay: abundance fitness (aPCA) (normalised: wild type 0, dead -1); higher = more abundant; growth selection in yeast, the domain comes from the species named
Conditions: Homo sapiens

| Substance | abundance fitness |
| --- | --- |
| NEDD4-like E3 ubiquitin-protein ligase WWP2 W450D, O00308 | -0.552 ± 0.041 |
| NEDD4-like E3 ubiquitin-protein ligase WWP2 W450E, O00308 | -0.492 ± 0.042 |
| NEDD4-like E3 ubiquitin-protein ligase WWP2 W450F, O00308 | -0.026 ± 0.075 |
| NEDD4-like E3 ubiquitin-protein ligase WWP2 W450H, O00308 | -0.464 ± 0.085 |
| NEDD4-like E3 ubiquitin-protein ligase WWP2 W450I, O00308 | -0.197 ± 0.083 |
| NEDD4-like E3 ubiquitin-protein ligase WWP2 W450K, O00308 | -0.598 ± 0.084 |
| NEDD4-like E3 ubiquitin-protein ligase WWP2 W450L, O00308 | -0.421 ± 0.048 |
| NEDD4-like E3 ubiquitin-protein ligase WWP2 W450M, O00308 | -0.4 ± 0.071 |
| NEDD4-like E3 ubiquitin-protein ligase WWP2 W450N, O00308 | -0.581 ± 0.099 |
| NEDD4-like E3 ubiquitin-protein ligase WWP2 W450R, O00308 | -0.735 ± 0.047 |
| NEDD4-like E3 ubiquitin-protein ligase WWP2 W450S, O00308 | -0.676 ± 0.057 |
| NEDD4-like E3 ubiquitin-protein ligase WWP2 W450T, O00308 | -0.475 ± 0.075 |
| NEDD4-like E3 ubiquitin-protein ligase WWP2 W450V, O00308 | -0.175 ± 0.033 |
| NEDD4-like E3 ubiquitin-protein ligase WWP2 W450Y, O00308 | -0.211 ± 0.081 |
| NEDD4-like E3 ubiquitin-protein ligase WWP2 Y454A, O00308 | -0.036 ± 0.056 |
| NEDD4-like E3 ubiquitin-protein ligase WWP2 Y454C, O00308 | -0.037 ± 0.048 |
| NEDD4-like E3 ubiquitin-protein ligase WWP2 Y454D, O00308 | -0.461 ± 0.12 |
| NEDD4-like E3 ubiquitin-protein ligase WWP2 Y454E, O00308 | -0.046 ± 0.052 |
| NEDD4-like E3 ubiquitin-protein ligase WWP2 Y454F, O00308 | -0.083 ± 0.059 |
| NEDD4-like E3 ubiquitin-protein ligase WWP2 Y454G, O00308 | -0.428 ± 0.045 |
| NEDD4-like E3 ubiquitin-protein ligase WWP2 Y454H, O00308 | -0.306 ± 0.066 |
| NEDD4-like E3 ubiquitin-protein ligase WWP2 Y454I, O00308 | -0.065 ± 0.062 |
| NEDD4-like E3 ubiquitin-protein ligase WWP2 Y454K, O00308 | -0.015 ± 0.067 |
| NEDD4-like E3 ubiquitin-protein ligase WWP2 Y454L, O00308 | -0.035 ± 0.031 |

| Substance | abundance fitness |
| --- | --- |
| NEDD4-like E3 ubiquitin-protein ligase WWP2 Y454M, O00308 | -0.185 ± 0.063 |
| NEDD4-like E3 ubiquitin-protein ligase WWP2 Y454N, O00308 | -0.121 ± 0.077 |
| NEDD4-like E3 ubiquitin-protein ligase WWP2 Y454P, O00308 | -0.592 ± 0.068 |
| NEDD4-like E3 ubiquitin-protein ligase WWP2 Y454Q, O00308 | 0.008 ± 0.071 |
| NEDD4-like E3 ubiquitin-protein ligase WWP2 Y454R, O00308 | -0.029 ± 0.033 |
| NEDD4-like E3 ubiquitin-protein ligase WWP2 Y454S, O00308 | -0.132 ± 0.043 |
| NEDD4-like E3 ubiquitin-protein ligase WWP2 Y454T, O00308 | -0.006 ± 0.057 |
| NEDD4-like E3 ubiquitin-protein ligase WWP2 Y454V, O00308 | -0.047 ± 0.048 |
| NEDD4-like E3 ubiquitin-protein ligase WWP2 Y454W, O00308 | -0.056 ± 0.035 |
| NEDD4-like E3 ubiquitin-protein ligase WWP2 Y461A, O00308 | -0.669 ± 0.072 |
| NEDD4-like E3 ubiquitin-protein ligase WWP2 Y461C, O00308 | -0.538 ± 0.061 |
| NEDD4-like E3 ubiquitin-protein ligase WWP2 Y461D, O00308 | -1.1 ± 0.15 |
| NEDD4-like E3 ubiquitin-protein ligase WWP2 Y461E, O00308 | -0.577 ± 0.071 |
| NEDD4-like E3 ubiquitin-protein ligase WWP2 Y461F, O00308 | -0.236 ± 0.075 |
| NEDD4-like E3 ubiquitin-protein ligase WWP2 Y461G, O00308 | -0.863 ± 0.045 |
| NEDD4-like E3 ubiquitin-protein ligase WWP2 Y461H, O00308 | -0.526 ± 0.077 |
| NEDD4-like E3 ubiquitin-protein ligase WWP2 Y461I, O00308 | -0.509 ± 0.086 |
| NEDD4-like E3 ubiquitin-protein ligase WWP2 Y461K, O00308 | -0.621 ± 0.072 |
| NEDD4-like E3 ubiquitin-protein ligase WWP2 Y461L, O00308 | -0.375 ± 0.048 |
| NEDD4-like E3 ubiquitin-protein ligase WWP2 Y461M, O00308 | -0.424 ± 0.038 |
| NEDD4-like E3 ubiquitin-protein ligase WWP2 Y461N, O00308 | -0.752 ± 0.052 |
| NEDD4-like E3 ubiquitin-protein ligase WWP2 Y461P, O00308 | -0.824 ± 0.045 |
| NEDD4-like E3 ubiquitin-protein ligase WWP2 Y461Q, O00308 | -0.671 ± 0.079 |
| NEDD4-like E3 ubiquitin-protein ligase WWP2 Y461R, O00308 | -0.762 ± 0.046 |

| Substance | abundance fitness |
| --- | --- |
| NEDD4-like E3 ubiquitin-protein ligase WWP2 Y461T, O00308 | -0.445 ± 0.067 |
| NEDD4-like E3 ubiquitin-protein ligase WWP2 Y461V, O00308 | -0.529 ± 0.055 |
| NEDD4-like E3 ubiquitin-protein ligase WWP2 Y461W, O00308 | -0.531 ± 0.053 |
| NEDD4-like E3 ubiquitin-protein ligase WWP2 Y491A, O00308 | -0.015 ± 0.059 |
| NEDD4-like E3 ubiquitin-protein ligase WWP2 Y491C, O00308 | -0.011 ± 0.049 |
| NEDD4-like E3 ubiquitin-protein ligase WWP2 Y491D, O00308 | 0.104 ± 0.074 |
| NEDD4-like E3 ubiquitin-protein ligase WWP2 Y491E, O00308 | 0.033 ± 0.064 |
| NEDD4-like E3 ubiquitin-protein ligase WWP2 Y491F, O00308 | 0.035 ± 0.07 |
| NEDD4-like E3 ubiquitin-protein ligase WWP2 Y491G, O00308 | 0.043 ± 0.04 |
| NEDD4-like E3 ubiquitin-protein ligase WWP2 Y491H, O00308 | 0.026 ± 0.072 |
| NEDD4-like E3 ubiquitin-protein ligase WWP2 Y491I, O00308 | 0.022 ± 0.068 |
| NEDD4-like E3 ubiquitin-protein ligase WWP2 Y491K, O00308 | -0.061 ± 0.064 |
| NEDD4-like E3 ubiquitin-protein ligase WWP2 Y491L, O00308 | -0.016 ± 0.036 |
| NEDD4-like E3 ubiquitin-protein ligase WWP2 Y491M, O00308 | 0.018 ± 0.061 |
| NEDD4-like E3 ubiquitin-protein ligase WWP2 Y491N, O00308 | -0.208 ± 0.076 |
| NEDD4-like E3 ubiquitin-protein ligase WWP2 Y491P, O00308 | -0.003 ± 0.036 |
| NEDD4-like E3 ubiquitin-protein ligase WWP2 Y491Q, O00308 | -0.01 ± 0.051 |
| NEDD4-like E3 ubiquitin-protein ligase WWP2 Y491R, O00308 | -0.001 ± 0.033 |
| NEDD4-like E3 ubiquitin-protein ligase WWP2 Y491S, O00308 | 0.037 ± 0.038 |
| NEDD4-like E3 ubiquitin-protein ligase WWP2 Y491T, O00308 | 0.039 ± 0.037 |
| NEDD4-like E3 ubiquitin-protein ligase WWP2 Y491V, O00308 | 0 ± 0.038 |
| NEDD4-like E3 ubiquitin-protein ligase WWP2 Y491W, O00308 | -0.104 ± 0.054 |
| Transcription factor SOX-11 A77S, P35716 | 0.01 ± 0.044 |
| Transcription factor SOX-11 A102Q, P35716 | -0.628 ± 0.44 |

| Substance | abundance fitness |
| --- | --- |
| Transcription factor SOX-11 A111E, P35716 | -0.149 ± 0.094 |
| Transcription factor SOX-11 A111T, P35716 | 0.039 ± 0.048 |
| Transcription factor SOX-11 D92N, P35716 | -0.18 ± 0.054 |
| Transcription factor SOX-11 D92T, P35716 | -0.223 ± 0.079 |
| Transcription factor SOX-11 D115N, P35716 | -0.193 ± 0.16 |
| Transcription factor SOX-11 E69K, P35716 | -0.57 ± 0.29 |
| Transcription factor SOX-11 E69V, P35716 | -0.401 ± 0.074 |
| Transcription factor SOX-11 E78N, P35716 | -0.727 ± 0.09 |
| Transcription factor SOX-11 E78V, P35716 | -0.615 ± 0.066 |
| Transcription factor SOX-11 E103S, P35716 | -0.684 ± 0.072 |
| Transcription factor SOX-11 I62D, P35716 | -0.203 ± 0.065 |
| Transcription factor SOX-11 I67L, P35716 | -0.178 ± 0.066 |
| Transcription factor SOX-11 I79L, P35716 | -0.225 ± 0.058 |
| Transcription factor SOX-11 I96Q, P35716 | 0.03 ± 0.08 |
| Transcription factor SOX-11 I96R, P35716 | -0.209 ± 0.048 |
| Transcription factor SOX-11 I99V, P35716 | -0.094 ± 0.05 |
| Transcription factor SOX-11 I99Y, P35716 | -0.01 ± 0.053 |
| Transcription factor SOX-11 K50R, P35716 | -0.396 ± 0.13 |
| Transcription factor SOX-11 K85Q, P35716 | 0.228 ± 0.13 |
| Transcription factor SOX-11 K85S, P35716 | 0.026 ± 0.05 |
| Transcription factor SOX-11 K91S, P35716 | 0.081 ± 0.044 |
| Transcription factor SOX-11 K91T, P35716 | 0.151 ± 0.056 |
